Measured values: patent US20230357367A1
Like-named read-outs stand apart in the source and are kept apart here.

What was measured:
Experiment in all cases: cell-based or functional assay
[1] = molecular target: spike (WIV-1) (WIV1 (bat SARS-like coronavirus))
[2] = molecular target: spike (SARS-CoV-1) (SARS-CoV-1) (UniProt P59594)
[3] = molecular target: WIV1 Spike on pseudovirus (WIV1 (bat SARS-like coronavirus))
[4] = molecular target: SARS-CoV-1 Spike on pseudovirus (SARS-CoV-1) (UniProt P59594)
[5] = molecular target: WIV1 Spike on pseudovirus (WIV1 (bat SARS-like coronavirus)); remark: listed apart in the source
[6] = molecular target: SARS-CoV-1 Spike on pseudovirus (SARS-CoV-1) (UniProt P59594); remark: listed apart in the source

Substance | Emax, pseudovirus neutralization (% neutralization) [1] | Emax, pseudovirus neutralization (% neutralization) [2] | % neutralization at 4.5 µg/ml, pseudovirus [3] | IC50, pseudovirus neutralization [3] | % neutralization at 4.5 µg/ml, pseudovirus [4] | IC50, pseudovirus neutralization [4] | IC50, pseudovirus neutralization [5] | IC50, pseudovirus neutralization [6]
bebtelovimab (antibody) | 6.99 | 8 |  |  |  |  |  | 
Sotrovimab VH/VL (human IgG1 molecule expressing the same variable regions of Sotrovimab) (antibody) |  |  | 99.4% | 0.032 µg/mL | 101% | 0.014 µg/mL | 0.0274 µg/mL | 0.0089 µg/mL
AZD1061 (antibody) |  |  | 0.8% |  | 1.2% |  |  | 
AZD8895 (antibody) |  |  | 0.6% |  | 1.7% |  |  | 
